Numbered stars: 1 amine (or outer) side, 2 acyl side, 3 side chain; on linkers, the order of the positions; unused ones are H or OH. Bridge positions count the residues as written; N and C are the ends. Square brackets hold non-standard residues; d marks the D form. Primed or numbered codes have the meaning given here. * marks the point of attachment. MB(4) = Monomer B (PyrS), N-Alloc pyrrolidine stapling residue, (S)-3-amino-1-(allyloxycarbonyl)pyrrolidine-3-carboxylic acid, C=CCOC(=O)N1CC[C@@](N[*:1])(C(=O)[*:2])C1; MC″ = Monomer C = PyrR, pyrrolidine stapling residue bearing Alloc (allyl carbamate on pyrrolidine N); R6″ = stapling residue, (R)-2-(5-hexenyl)alanine (drawn only), C=CCCCC[C@@](C)(N[*:1])C(=O)[*:2]; MB = Monomer B = PyrS, Alloc-pyrrolidine stapling residue (allyl carbamate on pyrrolidine N); MB(15) = Monomer B = PyrS (PS), pyrrolidine stapling residue (Alloc on ring N); MB(11) = Monomer B (PyrS), pyrrolidine-bearing Alloc-olefin stapling residue; R6 = (R)-2-(5-hexenyl)alanine, C=CCCCC[C@@](C)(N[*:1])C(=O)[*:2]; S6 = (S)-2-(5-hexenyl)alanine, C=CCCCC[C@](C)(N[*:1])C(=O)[*:2]; MB(5) = Monomer B (PyrS), N-Alloc pyrrolidine stapling residue; MB(14) = Monomer B = PyrS, Alloc-pyrrolidine stapling residue; MF = Monomer F (SdN), acyclic alkyl-N(Alloc) stapling residue; Biotin = O=C1N[C@H]2[C@H](CS[C@H]2CCCCC(=O)*)N1; Arg(Me2a) = CN(C)C(=N)NCCC[C@H](N)C(=O)O; Arg(Me2s) = CN=C(NC)NCCC[C@H](N)C(=O)O; 1Nal = N[C@@H](Cc1cccc2ccccc12)C(=O)O; PEG3′ = PEG3 linker, CAS# 557756-85-1; hArg = N=C(N)NCCCC[C@H](N)C(=O)O; R8 = C=CCCCCCC[C@@](C)(N)C(=O)O; S8 = C=CCCCCCC[C@](C)(N)C(=O)O; R5 = C=CCCC[C@@](C)(N)C(=O)O; S5 = C=CCCC[C@](C)(N)C(=O)O; Aib = CC(C)(N)C(=O)O
T1: full-length beta-catenin (UniProt P35222 2-781, limits assumed)
T1 construct: mature; also called full-length ß-Catenin; β-catenin
T1 sequence (looked up): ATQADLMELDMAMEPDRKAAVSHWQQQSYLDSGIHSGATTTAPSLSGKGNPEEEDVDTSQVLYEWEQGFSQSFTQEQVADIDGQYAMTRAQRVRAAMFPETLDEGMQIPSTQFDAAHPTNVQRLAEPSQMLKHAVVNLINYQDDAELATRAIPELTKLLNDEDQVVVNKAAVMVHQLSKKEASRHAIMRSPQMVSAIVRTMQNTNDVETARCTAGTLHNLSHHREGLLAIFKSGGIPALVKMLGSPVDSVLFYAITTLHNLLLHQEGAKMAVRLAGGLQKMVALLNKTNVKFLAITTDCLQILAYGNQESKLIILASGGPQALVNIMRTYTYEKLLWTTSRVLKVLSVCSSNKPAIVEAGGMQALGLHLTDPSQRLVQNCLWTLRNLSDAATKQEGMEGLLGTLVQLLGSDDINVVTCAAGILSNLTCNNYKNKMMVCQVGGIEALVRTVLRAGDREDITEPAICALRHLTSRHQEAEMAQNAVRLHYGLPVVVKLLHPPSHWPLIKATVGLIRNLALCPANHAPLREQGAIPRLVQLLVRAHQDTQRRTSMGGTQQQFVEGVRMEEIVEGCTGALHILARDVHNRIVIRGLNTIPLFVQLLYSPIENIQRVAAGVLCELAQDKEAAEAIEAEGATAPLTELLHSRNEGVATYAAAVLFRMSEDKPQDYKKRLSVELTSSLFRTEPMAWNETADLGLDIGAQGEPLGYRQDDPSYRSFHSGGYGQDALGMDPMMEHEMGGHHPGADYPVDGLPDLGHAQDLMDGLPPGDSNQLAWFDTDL

B1: FP0507a (peptide)
peptide: Ac-A[MI]ILDAHI[S6]RVW-NH2
modifications: staple 2-9; also: amino staple MI/S6 (-N(R')-, after CO2 extrusion from carbamate staple), olefin E/Z not given here
B2: FP0605c (peptide)
peptide: AXILDAHIXRVW
modifications: not fully specified; Ac-A-ME-I-L-D-A-H-I-MC-R-V-W-NH2; carbamate staple ME/MC
B3: FP0611c (peptide)
peptide: AXILDAHIXRVW
modifications: not fully specified; Ac-A-MA-I-L-D-A-H-I-MF-R-V-W-NH2; carbamate staple MA/MF
B4: FP0511c Isomer 2 (peptide)
peptide: Ac-A[R6″]ILDAHI[MH]RVW-NH2
modifications: staple 2-9; not fully specified; printed as Ac-A-R6-I-L-D-A-H-I-MH-R-V-W-NH2
B5: FP0218c (peptide)
peptide: Ac-A[R8]ILNAHI[MB(14)]RVW-NH2
modifications: staple 2-9
B6: FP0365c (peptide)
peptide: Ac-A[R8]ILDAHI[MB(11)][1Nal]VW-NH2
modifications: staple 2-9; also: carbamate staple R8/MB (-N(R')-C(O)-O-)
notes: isomer not specified
B7: FP0219c (peptide)
peptide: Ac-A[R8]ILTAHI[MB(14)]RVW-NH2
modifications: staple 2-9
B8: FP0410c (peptide)
peptide: AXILDAHIXAVW
modifications: not fully specified; Ac-A-R8-I-L-D-A-H-I-MB-A-V-W-NH2; carbamate staple R8/MB
B9: FP0406c (peptide)
peptide: AXIADAHIXRVW
modifications: not fully specified; Ac-A-R8-I-A-D-A-H-I-MB-R-V-W-NH2; carbamate staple R8/MB
B10: FP0636c (peptide)
peptide: Ac-A[R8]ILDAHI[MB(4)]K(Me)VW-NH2
modifications: staple 2-9
B11: FP0635c (peptide)
peptide: Ac-A[R8]ILDAHI[MB(4)]KVW-NH2
modifications: staple 2-9
B12: FP0626c (peptide)
peptide: Ac-A[MF]ILDAHI[MB(5)]RVW-NH2
modifications: staple 2-9
B13: FP0220c (peptide)
peptide: Ac-[R8]ILDAHI[MB(14)]RVW-NH2
modifications: staple 1-8
B14: FP0616c (peptide)
peptide: AXILDAHIXRVW
modifications: not fully specified; Ac-A-MA-I-L-D-A-H-I-MC-R-V-W-NH2; carbamate staple MA/MC
B15: FP0506c Isomer 2 (peptide)
peptide: Ac-A[MI]ILDAHI[S5]RVW-NH2
modifications: staple 2-9; also: carbamate staple, olefin geometry not assigned
B16: FP0601c (peptide)
peptide: AXILDAHIXRVW
modifications: not fully specified; Ac-A-ME-I-L-D-A-H-I-MF-R-V-W-NH2; carbamate staple ME/MF
B17: FP0005c (peptide)
peptide: Ac-PA[MC″]ILDAHV[S8]RVW-NH2
modifications: staple 3-10
B18: FP0217u (peptide)
peptide: Ac-A[R8]ILDAHI[MB(14)]RVW-NH2
B19: FP0511a (peptide)
peptide: Ac-A[R6″]ILDAHI[MH]RVW-NH2
modifications: staple 2-9
B20: FP0617c (peptide)
peptide: AXILDAHIXRVW
modifications: not fully specified; Ac-A-MA-I-L-D-A-H-I-MB-R-V-W-NH2; carbamate staple MA/MB
B21: FP0634c (peptide)
peptide: Ac-A[R8]ILDAHI[MB(4)][hArg]VW-NH2
modifications: staple 2-9
B22: FP0639c (peptide)
peptide: Ac-A[R8]ILDAHI[MB(4)][Arg(Me2a)]VW-NH2
modifications: staple 2-9
B23: FP0510c Isomer 2 (peptide)
peptide: Ac-A[R5]ILDAHI[MH]RVW-NH2
modifications: staple 2-9; not fully specified; printed as Ac-A-R5-I-L-D-A-H-I-MH-R-V-W-NH2
B24: FP0511c Isomer 1 (peptide)
peptide: Ac-A[R6″]ILDAHI[MH]RVW-NH2
modifications: staple 2-9; not fully specified; printed as Ac-A-R6-I-L-D-A-H-I-MH-R-V-W-NH2
B25: FP0335c Isomer 2 (peptide)
peptide: AXILDAHIXRVW
modifications: not fully specified; Ac-A-ME-I-L-D-A-H-I-S8-R-V-W-NH2; carbamate staple ME/S8
B26: FP0510c Isomer 1 (peptide)
peptide: AXILDAHIXRVW
modifications: not fully specified; Ac-A-R5-I-L-D-A-H-I-MH-R-V-W-NH2; carbamate staple R5/MH
B27: FP0598c (peptide)
peptide: AXILDAHIXRVW
modifications: not fully specified; Ac-A-MG-I-L-D-A-H-I-MC-R-V-W-NH2; carbamate staple MG/MC
B28: FP0640c (peptide)
peptide: Ac-A[R8]ILDAHI[MB(4)][Arg(Me2s)]VW-NH2
modifications: staple 2-9
B29: FP0645c (peptide)
peptide: Ac-A[R8]ILD[Aib]HI[MB(15)]RVW-NH2
modifications: staple 2-9
B30: FP0217c_btn (peptide)
peptide: {Biotin-PEG3′}-A[R8]ILDAHI[MB]RVW-NH2
modifications: staple 2-9
B31: FP0502c Isomer 1 (peptide)
peptide: Ac-A[R6]ILDAHI[MF]RVW-NH2
modifications: staple 2-9; also: carbamate staple, isomer 1, olefin geometry not assigned
notes: also called FP0502c (Peak 1)
B32: FP0006a (peptide)
peptide: Ac-PA[MC″]ILDAHV[S8]RVW-NH2
modifications: staple 3-10; also: amino staple: carbamate CO2 extruded after metathesis, staple: amino staple (-N(R')-, CO2 extruded from carbamate staple)
B33: FP0217s Isomer 2 (peptide)
peptide: AXILDAHIXRVW
modifications: not fully specified; Ac-A-R8-I-L-D-A-H-I-S5-R-V-W-NH2; hydrocarbon staple R8/S5
B34: FP0604c (peptide)
peptide: AXILDAHIXRVW
modifications: not fully specified; Ac-A-ME-I-L-D-A-H-I-MB-R-V-W-NH2; carbamate staple ME/MB
B35: FP0217s Isomer 1 (peptide)
peptide: AXILDAHIXRVW
modifications: not fully specified; Ac-A-R8-I-L-D-A-H-I-S5-R-V-W-NH2; hydrocarbon staple R8/S5
B36: FP0217rc (peptide)
peptide: AXILDAHIXRVW
modifications: Ac-A-R8-I-L-D-A-H-I-MB-R-V-W-NH2; carbamate staple R8/MB with the olefin reduced to -CH2-CH2-
notes: also called FPO217rc
B37: FP0587c (peptide)
peptide: AXILDAHIXRVW
modifications: not fully specified; Ac-A-MI-I-L-D-A-H-I-MF-R-V-W-NH2; carbamate staple MI/MF
B38: FP0588c (peptide)
peptide: AXILDAHIXRVW
modifications: not fully specified; Ac-A-MI-I-L-D-A-H-I-MG-R-V-W-NH2; carbamate staple MI/MG

Assays:
full-length beta-catenin [1] = biological target: T1, full-length beta-catenin; test: competition FP, grade of FP EC50 (+++: <=100 nM)
Protocol: (§1) In some embodiments, a competition fluorescence polarization assay is used to assess binding of provided compounds to beta-catenin. In an exemplary procedure, solutions of provided compounds, e.g., provided stapled peptides, were prepared in a buffer (e.g., 50 mM Tris pH 8.0, 250 mM NaCl, 2% glycerol, 0.5 mM EDTA, 0.02% w/v sodium azide) using a 3-fold serial dilution from 5 µM. Probe solution (15 nM full-length ß-Catenin, 20 nM FITC labeled peptide in buffer) was prepared and incubated for a period of time, e.g., 5 minutes, and the a volume, e.g., 40 µL per well plated in suitable plate, e.g., a black polystyrene 384-well plate (Corning). Equal volume of the serial diluted peptide was added to the plate and incubated protected from light for 15 minutes prior to read. Reads were performed on a Spectramax M5 (Molecular Devices) in duplicate. Suitable probe was FITC-PEG1-PQ-S5-ILD-S5-HVRRVWR (SEQ ID NO: 1) (hydrocarbon staple formed by two S5 via olefin metathesis) and/or FITC-bA-PQ-S5-ILD-S5-HVRRVWR (SEQ ID NO: 3) (hydrocarbon staple formed by two S5 via olefin metathesis). […] Another peptide, FPO217c (Ac-AR_8ILDAHIM$B5$RVW (SEQ ID NO: 280), with N-terminal proline removed and valine replaced with isoleucine compared to FP0025c) was prepared.

full-length beta-catenin [2] = biological target: T1, full-length beta-catenin; test: competition FP, grade of FP EC50 (++: 100-500 nM)
Protocol: as §1

Binder	FP EC50 (full-length beta-catenin [1])	FP EC50 (full-length beta-catenin [2])
B1	≤ 100 nM	
B2	≤ 100 nM	
B3	≤ 100 nM	
B4	≤ 100 nM	
B5		100 to 500 nM
B6		100 to 500 nM
B7		100 to 500 nM
B8		100 to 500 nM
B9		100 to 500 nM
B10		100 to 500 nM
B11		100 to 500 nM
B12	≤ 100 nM	
B13	≤ 100 nM	
B14	≤ 100 nM	
B15	≤ 100 nM	
B16	≤ 100 nM	
B17	≤ 100 nM	
B18	≤ 100 nM	
B19	≤ 100 nM	

Binder	FP EC50 (full-length beta-catenin [1])	FP EC50 (full-length beta-catenin [2])
B20	≤ 100 nM	
B21	≤ 100 nM	
B22	≤ 100 nM	
B23	≤ 100 nM	
B24	≤ 100 nM	
B25	≤ 100 nM	
B26	≤ 100 nM	
B27	≤ 100 nM	
B28	≤ 100 nM	
B29	≤ 100 nM	
B30	≤ 100 nM	
B31	≤ 100 nM	
B32	≤ 100 nM	
B33	≤ 100 nM	
B34	≤ 100 nM	
B35	≤ 100 nM	
B36	≤ 100 nM	
B37	≤ 100 nM	
B38	≤ 100 nM	
